Legend:
[1] = molecular target: T1, hu IGF-1R(ECD)-C3-muIgG1Fc (human; mouse, Glycosylated. 60% of the preparation was cleaved between the alpha and beta chains (RKRR, mature positions 708-711), which stay disulfide-linked; 40% was unprocessed. Dimer through the …); assay: phage Fab ELISA, plate coated with IGF-1R-C3-mFc at 5 µg/ml
T1 construct: 60% of the product was processed into α and β chains, 40% unprocessed; also called IGF-1R(ECD)-C3-muFc; IGF-1R-C3-muFc
Procedure: (§1) In 96-well 2-ml deep-well blocks, 480 μl/well 2xYT-CG broth was inoculated with 20 μl of overnight cultures of the individual clones, then incubated at 37° C., 300 rpm for 3 hours. To each well, 50 μl of 1:3 diluted M13KO7 helper phage were added to infect the cells. The block was incubated at 37° C. without shaking for 30 minutes, and then shaken gently for another 30 minutes at 150 rpm. The block was centrifuged at 3600 rpm for 20 minutes to pellet the infected cells. The cell pellet in each well was suspended into 480 μl of 2xYT-CK (2xYT broth containing 100 μg/ml carbenicillin and 40 μg/ml kanamycin), and incubated at 30° C. overnight for about 20 hours. The cell debris was separated by centrifugation at 3600 rpm for 20 minutes. The rescued phage supernatant was used in the phage ELISA to check for IGF-1R-specific, INSR-cross reactive, or mouse Fc binding of individual clones.
(§2) The coated plates were washed 3× with 300 μl/well of PBS. The washed plates were blocked with 300 μl/well 2% MPBS at room temperature for one hour. Meanwhile, rescued phages of individual clones were pre-blocked by mixing 170 μl of rescued phage with 170 μl of 4% MPBS. The blocked plates were washed 5× with 300 μl/well TBST (TBS: 10 mM Tris-HCl, pH 7.5, 1 mM EDTA, 150 mM NaCl; Tween-20. 0.1%). 100 μl/well of pre-blocked phage dilutions were distributed to each set of coated plate, which were incubated at room temperature on a rocker for 90 minutes. The plates were washed 5× with 300 μl/well TBST. 100 μl/well of anti-M13-HRP in 2% MPBS (1:3000 dilution, catalog number 27-9421-01, Amersham Pharmacia Biotech) were distributed, and plates were incubated at room temperature on rocker for one hour. The plates were washed 5× with 300 μl/well TBST. 100 μl/well of the substrate 1-Step™ ABTS (Pierce Biotechnology, Rockford, Ill., catalog number 37615) were added. Plates were incubated for one hour. OD₄₀₅ was measured for signal detection.

hu INSR(ECD)-muIgG1Fc = molecular target: T2, hu INSR(ECD)-muIgG1Fc (human; mouse, Glycosylated. 87% of the preparation was cleaved between the alpha and beta chains (RKRR site), which stay disulfide-linked. Dimer through the receptor and the murine Fc.); assay: phage Fab ELISA, plate coated with INSR-mFc at 5 µg/ml
T2 construct: 87% processed into α and β chains; also called INSR(ECD)-muFc; INSR-mFc
Procedure: as §1, §2

B1: L40H40 phage-displayed Fab (Fab, V domains shown)
VH: QVQLVQSGAEVKKPGSSVKVSCKASGGTFSSYAISWVRQAPGQGLEWMGRIIPILGIANYAQKFQGRVTITADKSTSTAYMELSSLRSEDTAVYYCAYGSGSYYDYYYMDVWGKGTTVTVSS
VL: ETTLTQSPATLSLSPGQRATLSCRASQSVYNYLAWYQQKPGQAPRLLIYDASRRATGIPARFSGSGSGTDFTLTISSLEPEDFAVYYCQQRNNWPLTFGGGTKVEIK
- binding result [1]: binds
- binding result (hu INSR(ECD)-muIgG1Fc): no binding

B2: L38H38 phage-displayed Fab (Fab, V domains shown)
VH: EVQLVESGPGLVKPSETLSLTCAVSGGSISSSNWWSWVRQPPGKGLEWIGEIYHSGSTNYNPSLKSRVTISVDKSKNQFSLKLSSVTAADTAVYYCARSTWSLDYWGQGTLVTVSS
VL: not shown
- binding result [1]: binds
- binding result (hu INSR(ECD)-muIgG1Fc): no binding

B3: L25H25 phage-displayed Fab (Fab, V domains shown)
VH: QVQLQESGPGLVKPSGTLSLTCAVSGGSISSSNWWSWVRQPPGKGLEWIGEIYHSGSTNYNPSLKSRVTISVDKSKNQFSLKLSSVTAADTAVYYCASSGYDAFDIWGQGTTVTVSS
VL: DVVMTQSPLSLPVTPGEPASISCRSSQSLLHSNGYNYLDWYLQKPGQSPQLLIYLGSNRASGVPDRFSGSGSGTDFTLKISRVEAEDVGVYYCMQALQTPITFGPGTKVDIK
- binding result [1]: binds
- binding result (hu INSR(ECD)-muIgG1Fc): no binding

B4: L32H32 phage-displayed Fab (Fab, V domains shown)
VH: QVQLQESGPGLVKPSGTLSLTCAVSGGSISSSNWWSWVRQPPGKGLEWIGEIYHSGSTNYNPSLKSRVTISVDKSKNQFSLKLSSVTAADTAVYYCARASVDAFDIWGQGTMVTVSS
VL: not shown
- binding result [1]: binds
- binding result (hu INSR(ECD)-muIgG1Fc): no binding

B5: L14H14 phage-displayed Fab (Fab, V domains shown)
VH: QVQLQESGPGLVKPSGTLSLTCAVSGGSISSSNWWSWVRQPPGKGLEWIGEIYHSGSTNYNPSLKSRVTISVDKSKNQFSLKLSSVTAADTAVYYCARGLGDSSGYILWGQGTMVTVSS
VL: not shown
- binding result [1]: binds
- binding result (hu INSR(ECD)-muIgG1Fc): no binding

B6: L15H15 phage-displayed Fab (Fab, V domains shown)
VH: QVQLQESGPGLVKPSGTLSLTCAVSGGSISSSNWWSWVRQPPGKGLEWIGEIYHSGSTNYNPSLKSRVTISVDKSKNQFSLKLSSVTAADTAVYYCARGLGDSSGYILWGQGTMVTVSS
VL: DVVMTQSPLSLPVTPGEPASISCRSSQSLLHSNGYNYLDWYLQKPGQSPQLLIYLGSYRASGVPDRFSASGSGTDFTLKISRVEAEDVGVYYCMQALQTPITFGQGTRLEIK
- binding result [1]: binds
- binding result (hu INSR(ECD)-muIgG1Fc): no binding

B7: L33H33 phage-displayed Fab (Fab, V domains shown)
VH: QVQLQESGPGLVKPSGTLSLTCAVSGGSISSSNWWSWVRQPPGKGLEWIGEIYHSGSTNYNPSLKSRVTISVDKSKNQFSLKLSSVTAADTAVYYCARGLGDSSGYILWGQGTMVTVSS
VL: EIVLTQSPLSLPVTPGEPASISCRSSQSLLHSNGYNYLDWYLQKPGQSPQLLMYLVSNRASGVPERFSGSGSGTDFTLKISRVEAEDVGVYYCMQTLQTPLSFGQGTKLEIK
- binding result [1]: binds
- binding result (hu INSR(ECD)-muIgG1Fc): no binding

B8: L49H49 phage-displayed Fab (Fab, V domains shown)
VH: QVQLQQWGAGLLKPSETLSLTCAVYGGSFSGYYWSWIRQPPGKGLEWIGEINHSGSTNYNPSLKSRVTISVDTSKNQFSLKLSSVTAADTAVYYCARVGYSHGEEVLDVWGKGTTVTVSS
VL: NFMLTQPHSVSESPGKTVSISCTRNSGSIASNFVQWYQQRPGSAPTIVIYEDNQRPSAVPTRFSGSIDRSSNSASLTISGLTTEDEADYYCQSYDSANVIFGGGTKLTVL
- binding result [1]: binds
- binding result (hu INSR(ECD)-muIgG1Fc): no binding

B9: L30H30 phage-displayed Fab (Fab, V domains shown)
VH: QVQLQESGPGLVKPSGTLSLTCAVSGGSISSSNWWSWVRQPPGKGLEWIGEIYHSGSTNYNPSLKSRVTISVDKSKNQFSLKLSSVTAADTAVYYCARVSGYYYYGMDVWGQGTTVTVSS
VL: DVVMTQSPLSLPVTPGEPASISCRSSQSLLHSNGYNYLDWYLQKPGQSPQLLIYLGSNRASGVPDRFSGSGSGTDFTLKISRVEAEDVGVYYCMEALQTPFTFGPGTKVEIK
- binding result [1]: binds
- binding result (hu INSR(ECD)-muIgG1Fc): no binding

B10: L37H37 phage-displayed Fab (Fab, V domains shown)
VH: EVQLVESGPGLVKPSGTLSLTCAVSGGSISSSNWWSWIRQPPGKGLEWIGEIYHSGSTNYNPSLKSRVTISVDKSKNQFSLKLSSVTAADTAVYYCARDSSSWYYGMDVWGQGTTVTVSS
VL: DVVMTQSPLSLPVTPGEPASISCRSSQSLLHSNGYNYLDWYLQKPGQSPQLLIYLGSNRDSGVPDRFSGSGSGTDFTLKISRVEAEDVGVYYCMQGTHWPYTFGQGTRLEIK
- binding result [1]: binds
- binding result (hu INSR(ECD)-muIgG1Fc): no binding

B11: L36H36 phage-displayed Fab (Fab, V domains shown)
VH: QVQLQQWGAGLLKPSETLSLTCAVYGGSFSGYYWSWIRQPPGKGLEWIGEINHSGSTNYNPSLKSRVTISVDTSKNQFSLKLSSVTAADTAVYYCARVGYSSGRDVDYWGQGTLVTVSS
VL: NFMLTQPHSVSESPGKTVTISCTRSSGSIASNYVQWYQQRPGSSPTTVIYEDNQRPSGVPDRFSGSIDSSSNSASLTISGLKTEDEADYYCQSYDSSNVVFGGGTKLTVL
- binding result [1]: binds
- binding result (hu INSR(ECD)-muIgG1Fc): no binding

B12: L28H28 phage-displayed Fab (Fab, V domains shown)
VH: QVQLQESGPGLVKPSETLSLTCTVSGGSIRNYYWSWIRQPPGKGLEWIGYISDSGNTNYNPSLKSRVTISVDTSKNQFSLKLTSVTATDTAAYFCARHRSSWAWYFDLWGRGTLVTVSS
VL: SYVLTQPPSVSVSPGQTASITCSGDKLGDKYVGWYQQKAGQAPVLVIYQDNKRPSGIPERFSGSNSGNTASLTISGTQAMDEADYYCQAWDSGTVFGGGTKLTVL
- binding result [1]: binds
- binding result (hu INSR(ECD)-muIgG1Fc): no binding

B13: L34H34 phage-displayed Fab (Fab, V domains shown)
VH: QVQLQQSGPGLVKPSGTLSLTCAVSGGSISSSNWWSWVRQPPGKGLEWIGEIYHSGSTNYNPSLKSRVTISVDKSKNQFSLKLSSVTPEDTAVYYCARDHGPFDYWGRGTLVTVSS
VL: not shown
- binding result [1]: binds
- binding result (hu INSR(ECD)-muIgG1Fc): no binding

B14: L27H27 phage-displayed Fab (Fab, V domains shown)
VH: EVQLVQSGGGVVQPGTSLRLSCAASGFSFRSHGMHWVRQAPGKGLEWVAVISYDGSNKYYADSVKGRFTISRDNSKNTLYLQMNSLRAEDTAVYYCATIGPGGFDYWGQGTLVTVSS
VL: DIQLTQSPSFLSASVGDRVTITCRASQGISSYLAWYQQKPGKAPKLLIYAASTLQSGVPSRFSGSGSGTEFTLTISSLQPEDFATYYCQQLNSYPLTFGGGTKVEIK
- binding result [1]: binds
- binding result (hu INSR(ECD)-muIgG1Fc): no binding

B15: L31H31 phage-displayed Fab (Fab, V domains shown)
VH: EVQLVQSGGGVVQPGRSLRLSCAASGFTFSSYGMHWVRQAPGKGLEWVAVISYDGSNKYYADSVKGRFTISRDNSKNTLYLQMNSLRAEDTAVYYCAKAYSSGWYDYYGMDVWGQGTTVTVSS
VL: DIQLTQSPSSLSASVGDRVTITCRSSQGIGYFLNWYQQEPGKAPKILISAASTLQSGVPSRFSGSGSGTDFTLSINNLQPADFATYYCQQSHSPPYTFGQGTKVEIK
- binding result [1]: binds
- binding result (hu INSR(ECD)-muIgG1Fc): no binding

B16: L29H29 phage-displayed Fab (Fab, V domains shown)
VH: QVQLQESGPGLVKPSETLSLTCAVSGGSISSSNWWSWVRQPPGKGLEWIGEIYHSGSTNYNPSLKSRVTISVDKSKNQFSLKLSSVTAADTAVYYCARVGSGWYVDYWGQGTLVTVSS
VL: not shown
- binding result [1]: binds
- binding result (hu INSR(ECD)-muIgG1Fc): no binding

B17: L7H7 phage-displayed Fab (Fab, V domains shown)
VH: QVQLQESGPGLVKPSGTLSLTCAVSGGSISSSNWWSWVRQPPGKGLEWIGEIYHSGSTNYNPSLKSRVTISVDKSKNQFSLKLSSVTAADTAVYYCARFWDYYGMDVWGQGTTVTVSS
VL: not shown
- binding result [1]: binds
- binding result (hu INSR(ECD)-muIgG1Fc): no binding

B18: L10H10 phage-displayed Fab (Fab, V domains shown)
VH: EVQLVESGPGLVKPSGTLSLTCAVSGGSISSSNWWSWVRQPPGKGLEWIGEIYHSGSTNYNPSLKSRVTISVDKSKNQFSLKLSSVTAADTAVYYCARDYDIFGMDVWGQGTTVTVSS
VL: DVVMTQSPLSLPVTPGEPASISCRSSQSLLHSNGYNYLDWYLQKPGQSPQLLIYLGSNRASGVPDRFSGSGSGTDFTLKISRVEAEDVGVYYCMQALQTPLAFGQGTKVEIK
- binding result [1]: binds
- binding result (hu INSR(ECD)-muIgG1Fc): no binding

B19: L3H3 phage-displayed Fab (Fab, V domains shown)
VH: QVQLQESGPGLVKPSGTLSLTCAVSGGSISSSNWWSWVRQPPGKGLEWIGEIYHSGSTNYNPSLKSRVTISVDKSKNQFSLKLSSVTAADTAVYYCAKNLAAGAVAYWGQGTLVTVSS
VL: not shown
- binding result [1]: binds
- binding result (hu INSR(ECD)-muIgG1Fc): no binding

B20: L6H6 phage-displayed Fab (Fab, V domains shown)
VH: QVQLQESGPGLVKPSGTLSLTCAVSGGSISSSNWWSWVRQPPGKGLEWIGEIYHSGSTNYNPSLKSRVTISVDKSKNQFSLKLSSVTAADTAVYYCARDGQLDAFDIWGQGTMVTVSS
VL: not shown
- binding result [1]: binds
- binding result (hu INSR(ECD)-muIgG1Fc): no binding

B21: L39H39 phage-displayed Fab (Fab, V domains shown)
VH: EVQLVESGPGLVKPSGTLSLTCAVSGGSISSSNWWSWVRQPPGKGLEWIGEIYHSGSTNYNPSLKSRVTISVDKSKNQFSLKLSSVTAADTAVYYCARLSFADPFDIWGQGTMVTVSS
VL: not shown
- binding result [1]: binds
- binding result (hu INSR(ECD)-muIgG1Fc): no binding

From US20140037642A1 (Amgen, published 2014)
